Patent US20200199241A1 (Chugai, published 2020)
Where two headings read alike, the source gives them in different places.

T1: human FcγRIIa(R) (human, UniProt P12318 36-217)
T1 construct: also called FcgRIIaR; hFcgRIIa(R)
T1 chain: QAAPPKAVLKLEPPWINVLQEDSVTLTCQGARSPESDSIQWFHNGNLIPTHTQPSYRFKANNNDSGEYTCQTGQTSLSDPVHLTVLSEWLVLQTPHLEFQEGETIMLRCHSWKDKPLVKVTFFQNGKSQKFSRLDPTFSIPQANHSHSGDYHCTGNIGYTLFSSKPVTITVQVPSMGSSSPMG

T2: human FcγRIIa(H) (human, UniProt P12318 36-217)
T2 construct: also called FcgRIIaH; hFcgRIIa(H)
T2 sequence: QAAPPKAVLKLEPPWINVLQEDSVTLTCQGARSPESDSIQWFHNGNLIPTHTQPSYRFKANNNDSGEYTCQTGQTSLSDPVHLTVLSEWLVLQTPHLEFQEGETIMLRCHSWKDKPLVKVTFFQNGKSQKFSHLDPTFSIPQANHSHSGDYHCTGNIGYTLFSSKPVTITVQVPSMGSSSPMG

T3: human FcγRIIb (human, UniProt P31994 43-217, limits assumed)
T3 construct: also called FcgRIIb; hFcgRIIb
T3 sequence: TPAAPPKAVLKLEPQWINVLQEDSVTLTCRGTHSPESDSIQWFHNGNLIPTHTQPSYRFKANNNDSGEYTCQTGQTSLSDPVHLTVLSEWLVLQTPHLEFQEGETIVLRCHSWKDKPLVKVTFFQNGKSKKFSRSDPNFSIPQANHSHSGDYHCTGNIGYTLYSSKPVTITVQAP

T4: mouse FcγRIII (mouse, UniProt P08508 31-215)
T4 construct: bought; also called mFcgRIII; mFcgR III
T4 sequence (looked up): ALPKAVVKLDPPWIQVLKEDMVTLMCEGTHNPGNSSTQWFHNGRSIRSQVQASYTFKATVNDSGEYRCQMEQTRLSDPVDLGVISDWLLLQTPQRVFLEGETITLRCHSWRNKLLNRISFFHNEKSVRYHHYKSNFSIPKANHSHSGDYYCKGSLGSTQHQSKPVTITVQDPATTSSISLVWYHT

T5: mouse FcγRIV (mouse, UniProt A0A0B4J1G0 21-203)
T5 construct: bought; also called mFcgRIV; mFcgR IV; the vendor's purification tag not given
T5 sequence: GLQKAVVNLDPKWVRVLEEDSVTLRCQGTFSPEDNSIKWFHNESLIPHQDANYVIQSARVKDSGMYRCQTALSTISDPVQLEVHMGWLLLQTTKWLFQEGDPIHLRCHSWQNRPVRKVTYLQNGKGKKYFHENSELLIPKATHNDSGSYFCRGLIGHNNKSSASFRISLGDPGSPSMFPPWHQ

T6: mouse FcγRI (mouse, UniProt P26151 25-297)
T6 construct: bought; also called mFcgRI; mFcgR 1
T6 sequence (looked up): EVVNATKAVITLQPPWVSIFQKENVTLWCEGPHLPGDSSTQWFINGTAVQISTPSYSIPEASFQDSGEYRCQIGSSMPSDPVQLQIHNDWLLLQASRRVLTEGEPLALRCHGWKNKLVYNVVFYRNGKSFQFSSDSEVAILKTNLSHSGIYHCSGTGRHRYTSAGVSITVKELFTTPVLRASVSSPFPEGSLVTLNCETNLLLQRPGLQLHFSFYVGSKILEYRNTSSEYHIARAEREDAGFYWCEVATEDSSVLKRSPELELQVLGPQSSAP

T7: mouse FcγRIIb (mouse, UniProt P08101 30-207, limits assumed)
T7 construct: bought; also called mFcgRIIb; mFcgR IIb
T7 sequence (looked up): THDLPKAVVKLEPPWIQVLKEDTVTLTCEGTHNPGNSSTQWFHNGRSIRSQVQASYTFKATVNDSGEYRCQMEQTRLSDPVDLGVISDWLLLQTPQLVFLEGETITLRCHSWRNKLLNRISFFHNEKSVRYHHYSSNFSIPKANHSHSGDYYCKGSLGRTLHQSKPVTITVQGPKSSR

T8: human FcγRIIb (human, UniProt P31994 43-217, limits assumed)
T8 construct: also called FcγIIB
T8 sequence: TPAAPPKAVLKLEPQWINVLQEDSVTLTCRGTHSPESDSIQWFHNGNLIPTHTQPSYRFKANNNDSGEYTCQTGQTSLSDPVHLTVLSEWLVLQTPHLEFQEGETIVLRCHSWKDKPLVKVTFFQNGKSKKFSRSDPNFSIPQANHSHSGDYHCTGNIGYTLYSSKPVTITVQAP


Columns and labels:
human FcγRIIa(R) = target: T1, human FcγRIIa(R); experiment: SPR, pH 7.4, antibody captured by Protein L
human FcγRIa = target: T9, human FcγRIa (human, UniProt P12314 16-292, limits assumed); experiment: SPR, pH 7.4, antibody captured by Protein L
T9 construct: also called FcgRIa; hFcgRIa

human FcγRIIa(H) = target: T2, human FcγRIIa(H); experiment: SPR, pH 7.4, antibody captured by Protein L
human FcγRIIIa(V) = target: T10, human FcγRIIIa(V) (human, UniProt P08637 17-208, limits assumed); experiment: SPR, pH 7.4, antibody captured by Protein L
T10 construct: also called hFcgRIIIa(V); FcγRIIIa allotype V158

human FcγRIIb [1] = target: T3, human FcγRIIb; experiment: SPR, pH 7.4, antibody captured by Protein L
[2] = target: T11, human FcRn (complex with human β2-microglobulin) (human, UniProt P61769 21-119, limits assumed); experiment: SPR, pH 7.0, antibody captured by Protein L, hFcRn analyte
T11 construct: soluble human FcRn complexed with β2-microglobulin was used; also called hFcRn

[3] = target: T12, human FcRn (soluble human FcRn complexed with β2-microglobulin) (human, UniProt P61769 21-119, limits assumed); experiment: SPR, antibody captured by Protein L, human FcRn as analyte, pH 7.0, 25 C
T12 construct: also called hFcRn

mouse FcγRIII = target: T4, mouse FcγRIII; experiment: SPR, antibody captured by Protein L, mouse FcγR as analyte, pH 7.4, 25 C
mouse FcγRIV = target: T5, mouse FcγRIV; experiment: as above
mouse FcγRI = target: T6, mouse FcγRI; experiment: as above
mouse FcγRIIb = target: T7, mouse FcγRIIb; experiment: as above
human FcγRIIb [4] = target: T8, human FcγRIIb; experiment: SPR (Biacore), antibody captured, FcγR as analyte
human FcγRIIb [5] = target: T8, human FcγRIIb; experiment: SPR (Biacore); ratio against IgG1
human FcγRIIb [6] = target: T8, human FcγRIIb; experiment: SPR (Biacore); ratio against IgG1; remark: listed apart in the source
human FcγRIIb [7] = target: T8, human FcγRIIb; experiment: SPR (Biacore), antibody captured, FcγR as analyte; remark: listed apart in the source

T9 sequence (P12314 16-292 limits assumed): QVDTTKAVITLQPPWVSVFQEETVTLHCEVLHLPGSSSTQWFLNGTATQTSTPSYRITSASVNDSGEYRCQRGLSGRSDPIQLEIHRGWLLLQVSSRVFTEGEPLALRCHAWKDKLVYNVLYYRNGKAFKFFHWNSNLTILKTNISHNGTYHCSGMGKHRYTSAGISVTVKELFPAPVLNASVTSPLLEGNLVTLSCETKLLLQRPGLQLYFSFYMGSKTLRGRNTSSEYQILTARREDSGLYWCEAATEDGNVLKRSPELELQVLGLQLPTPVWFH
T10 sequence (P08637 other isoform, or with tags, fused parts or gaps limits assumed): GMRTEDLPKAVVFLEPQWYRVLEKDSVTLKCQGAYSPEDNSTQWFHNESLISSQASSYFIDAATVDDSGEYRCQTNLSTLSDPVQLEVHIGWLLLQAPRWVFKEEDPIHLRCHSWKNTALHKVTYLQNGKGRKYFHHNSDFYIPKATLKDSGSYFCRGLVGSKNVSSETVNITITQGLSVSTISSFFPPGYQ

Binder	binding amount (human FcγRIIa(R)) [RU]	binding amount (human FcγRIa) [RU]	binding amount (human FcγRIIa(H)) [RU]	binding amount (human FcγRIIIa(V)) [RU]	binding amount (human FcγRIIb [1]) [RU]	Kd [2] [nM]	Kd [3] [nM]	BINDING AMOUNT (RU) (mouse FcγRIV)	BINDING AMOUNT (RU) (mouse FcγRIIb)	further results
VH3-IgG4-F890/L(WT)-CK (antibody, M252Y/N434Y/Y436V in VH3-IgG4; copies: 2 + 2) heavy: QVQLQESGPGLVKPSETLSLTCAVSGHSISHDHAWSWVRQPPGEGLEWIGFISYSGITNYNPSLQGRVTISRDNSKNTLYLQMNSLRAEDTAVYYCARSLARTTAMDYWGEGTLVTVSSASTKGPSVFPLAPCSRSTSESTAALGCLVKDYFPEPVTVSWNSGALTSGVHTFPAVLQSSGLYSLSSVVTVPSSSLGTKTYTCNVDHKPSNTKVDKRVESKYGPPCPPCPAPEFLGGPSVFLFPPKPKDTLYISRTPEVTCVVVDVSQEDPEVQFNWYVDGVEVHNAKTKPREEQFNSTYRVVSVLTVLHQDWLNGKEYKCKVSNKGLPSSIEKTISKAKGQPREPQVYTLPPSQEEMTKNQVSLTCLVKGFYPSDIAVEWESNGQPENNYKTTPPVLDSDGSFFLYSRLTVDKSRWQEGNVFSCSVMHEALHYHVTQKSLSLSL light: not shown	92.8	367	37.5	15.5	71.8	140	–	–	–	–
IgG1-v1 (antibody, IL6R-G1d with P238D (EU numbering); also called IL6R-G1d-v1) heavy: not shown light: DIQMTQSPSSLSASVGDRVTITCRASQDISSYLNWYQQKPGKAPKLLIYYTSRLHSGVPSRFSGSGSGTDFTFTISSLQPEDIATYYCQQGNTLPYTFGQGTKVEIK	–	–	–	–	–	–	–	–	–	Kd (human FcγRIIb [4]): 1100 nM; relative KD for FcγRIIb (KD for IgG1/KD for each variant) (human FcγRIIb [5]): 4.8; relative KD for FcγRIIb (KD for IgG1/KD for each variant) (human FcγRIIb [6]): 4.8; Kd (human FcγRIIb [7]): 1100 nM
VH3-IgG2-F939/L(WT)-CK (antibody, A235R/S239K/M252Y/N434Y/Y436V in VH3-IgG2; copies: 2 + 2) heavy: QVQLQESGPGLVKPSETLSLTCAVSGHSISHDHAWSWVRQPPGEGLEWIGFISYSGITNYNPSLQGRVTISRDNSKNTLYLQMNSLRAEDTAVYYCARSLARTTAMDYWGEGTLVTVSSASTKGPSVFPLAPCSRSTSESTAALGCLVKDYFPEPVTVSWNSGALTSGVHTFPAVLQSSGLYSLSSVVTVPSSNFGTQTYTCNVDHKPSNTKVDKTVERKCCVECPPCPAPPVRGPKVFLFPPKPKDTLYISRTPEVTCVVVDVSHEDPEVQFNWYVDGVEVHNAKTKPREEQFNSTFRVVSVLTVVHQDWLNGKEYKCKVSNKGLPAPIEKTISKTKGQPREPQVYTLPPSREEMTKNQVSLTCLVKGFYPSDIAVEWESNGQPENNYKTTPPMLDSDGSFFLYSKLTVDKSRWQQGNVFSCSVMHEALHYHVTQKSLSLSP light: not shown	1	1.3	1	1.1	0.4	140	–	–	–	–

Further lines, with some results ahead:

binding amount (human FcγRIIa(R)) [RU]	binding amount (human FcγRIa) [RU]	binding amount (human FcγRIIa(H)) [RU]	binding amount (human FcγRIIIa(V)) [RU]	binding amount (human FcγRIIb [1]) [RU]	Kd [2] [nM]	Kd [3] [nM]	BINDING AMOUNT (RU) (mouse FcγRIV)	BINDING AMOUNT (RU) (mouse FcγRIIb)	Binder	further results
-0.2	1.2	-0.7	-0.5	0.4	110	–	–	–	VH3-IgG4-F939/L(WT)-CK (antibody, L235R/S239K/M252Y/N434Y/Y436V in VH3-IgG4; copies: 2 + 2) heavy: QVQLQESGPGLVKPSETLSLTCAVSGHSISHDHAWSWVRQPPGEGLEWIGFISYSGITNYNPSLQGRVTISRDNSKNTLYLQMNSLRAEDTAVYYCARSLARTTAMDYWGEGTLVTVSSASTKGPSVFPLAPCSRSTSESTAALGCLVKDYFPEPVTVSWNSGALTSGVHTFPAVLQSSGLYSLSSVVTVPSSSLGTKTYTCNVDHKPSNTKVDKRVESKYGPPCPPCPAPEFRGGPKVFLFPPKPKDTLYISRTPEVTCVVVDVSQEDPEVQFNWYVDGVEVHNAKTKPREEQFNSTYRVVSVLTVLHQDWLNGKEYKCKVSNKGLPSSIEKTISKAKGQPREPQVYTLPPSQEEMTKNQVSLTCLVKGFYPSDIAVEWESNGQPENNYKTTPPVLDSDGSFFLYSRLTVDKSRWQEGNVFSCSVMHEALHYHVTQKSLSLSL light: not shown	–
–	–	–	–	–	–	150	243	129	antibody with VH3-IgG1-F157 heavy chain and L(WT)-CK light chain (antibody, P257A/V308P/M428L/N434Y; also called 1gG1-F157; copies: 2 + 2) heavy: QVQLQESGPGLVKPSETLSLTCAVSGHSISHDHAWSWVRQPPGEGLEWIGFISYSGITNYNPSLQGRVTISRDNSKNTLYLQMNSLRAEDTAVYYCARSLARTTAMDYWGEGTLVTVSSASTKGPSVFPLAPSSKSTSGGTAALGCLVKDYFPEPVTVSWNSGALTSGVHTFPAVLQSSGLYSLSSVVTVPSSSLGTQTYICNVNHKPSNTKVDKKVEPKSCDKTHTCPPCPAPELLGGPSVFLFPPKPKDTLMISRTAEVTCVVVDVSHEDPEVKFNWYVDGVEVHNAKTKPREEQYNSTYRVVSVLTPLHQDWLNGKEYKCKVSNKALPAPIEKTISKAKGQPREPQVYTLPPSRDELTKNQVSLTCLVKGFYPSDIAVEWESNGQPENNYKTTPPVLDSDGSFFLYSKLTVDKSRWQQGNVFSCSVLHEALHYHYTQKSLSLSP light: not shown	BINDING AMOUNT (RU) (mouse FcγRIII): 276 RU; BINDING AMOUNT (RU) (mouse FcγRI): 315 RU
–	–	–	–	–	–	94	138	-2.5	antibody with VH3-IgG1-F424 heavy chain and L(WT)-CK light chain (antibody, S239K/P257A/V308P/M428L/N434Y; copies: 2 + 2) heavy: QVQLQESGPGLVKPSETLSLTCAVSGHSISHDHAWSWVRQPPGEGLEWIGFISYSGITNYNPSLQGRVTISRDNSKNTLYLQMNSLRAEDTAVYYCARSLARTTAMDYWGEGTLVTVSSASTKGPSVFPLAPSSKSTSGGTAALGCLVKDYFPEPVTVSWNSGALTSGVHTFPAVLQSSGLYSLSSVVTVPSSSLGTQTYICNVNHKPSNTKVDKKVEPKSCDKTHTCPPCPAPELLGGPKVFLFPPKPKDTLMISRTAEVTCVVVDVSHEDPEVKFNWYVDGVEVHNAKTKPREEQYNSTYRVVSVLTPLHQDWLNGKEYKCKVSNKALPAPIEKTISKAKGQPREPQVYTLPPSRDELTKNQVSLTCLVKGFYPSDIAVEWESNGQPENNYKTTPPVLDSDGSFFLYSKLTVDKSRWQQGNVFSCSVLHEALHYHYTQKSLSLSP light: not shown	–
